Measured values taken from publication PMC12396273.

How the values were obtained:
Assay in all cases: fluorescence polarisation
[1] = molecular target: Human BCL-2 removing the C-terminal 32 residues, C-terminal 6×His-tag (human) (UniProt P10415)
[2] = molecular target: Human BCL-XL removing the C-terminal 22 residues, C-terminal 6×His-tag (human) (UniProt Q07817)
[3] = molecular target: FITC-labelled HRK-BH3 peptide

Chain of UniProt Q07817 (Q07817 1-211): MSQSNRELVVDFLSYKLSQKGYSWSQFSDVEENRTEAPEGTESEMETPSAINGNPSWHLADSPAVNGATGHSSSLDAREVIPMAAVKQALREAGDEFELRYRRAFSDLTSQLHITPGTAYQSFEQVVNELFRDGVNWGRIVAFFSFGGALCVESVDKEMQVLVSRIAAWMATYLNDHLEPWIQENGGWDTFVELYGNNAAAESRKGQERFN

Substance | Ki [1] [nM] | Ki [2] [nM] | EC50 [3] [nM]
wild-type HRK-BH3 peptide (HRK-WT) | 36 | 1.8 | –
Human BCL-2 removing the C-terminal 32 residues, C-terminal 6×His-tag (from UniProt P10415 1-207) (domain or fragment) | – | – | 30
